Data taken from PMC6872946 (Growth factors (Chur, Switzerland), 2019).
Where two headings read alike, the source gives them in different places.

How the values were obtained:
[1] = target: PDGF-C growth factor domain (human); assay: immunoblot after cleavage with matriptase
[2] = target: the molecule itself; assay: non-reducing SDS-PAGE and immunoblot
[3] = target: the molecule itself; assay: non-reducing SDS-PAGE and immunoblot; remark: listed apart in the source

**Q.** “PDGF-C growth factor domain (domain or fragment)” was tested. Which stoichiometry N [1] did it give?
**A.** The stoichiometry N was 2.

B1: truncated PDGF-C isoform with a C-terminal myc tag (t-PDGF-C-myc), in COS-1 cells (natural protein, human, UniProt Q9NRA1 164-345, looked up)
chain: MPQFTEAVSPSVLPPSALPLDLLNNAITAFSTLEDLIRYLEPERWQLDLEDLYRPTWQLLGKAFVFGRKSRVVDLNLLTEEVRLYSCTPRNFSVSIREELKRTDTIFWPGCLLVKRCGGNCACCLHNCNECQCVPSKVTKKYHEVLQLRPKTGVRGLHKSLTDVALEHHEECDCVCRGSTGG
**Q.** How did the “stoichiometry N” value [2] turn out when B1 was run?
**A.** Its value is 2.

B2: truncated PDGF-C isoform with a myc tag (t-PDGF-C/myc), stably expressed in BT-549 cells (natural protein, human, UniProt Q9NRA1 164-345, looked up)
chain: MPQFTEAVSPSVLPPSALPLDLLNNAITAFSTLEDLIRYLEPERWQLDLEDLYRPTWQLLGKAFVFGRKSRVVDLNLLTEEVRLYSCTPRNFSVSIREELKRTDTIFWPGCLLVKRCGGNCACCLHNCNECQCVPSKVTKKYHEVLQLRPKTGVRGLHKSLTDVALEHHEECDCVCRGSTGG
**Q.** For B2, which “stoichiometry N” value [3] is on record?
**A.** The value was 2.
